Data as given in patent publication US11306156.
Blank lines part the entries; values can stand above or below the substance they belong to.

Assays:
[1] = target: D3H44 light chain Q124E_V133G_S176D_T178E_T180E; test: LCCA (co-expression, SPR tag read-out), L1:L2 DNA 1:3 normalised to 1:1; competing light chain m7
[2] = target: D3H44 light chain V133G_S176D_T178D_T180E; test: as above
[3] = target: D3H44 light chain Q124E_V133G_S176D_T178E_T180E; test: LCCA (co-expression, SPR tag read-out), L1:L2 DNA 1:3 normalised to 1:1; competing light chain m8
[4] = target: D3H44 light chain Q124E_V133G_S176D_T178D_T180E; test: as above
[5] = target: D3H44 light chain Q124E_V133G_S176D_T178D_T180E; test: LCCA (co-expression, SPR tag read-out), L1:L2 DNA 1:3 normalised to 1:1; competing light chain m7
[6] = target: D3H44 light chain Q124R_T178R with N-terminal HA or FLAG tag; test: LCCA (SPR tag readout), L1:L2 DNA 1:3, normalized to 1:1; competing light chain m11
[7] = target: D3H44 light chain T178R with N-terminal HA or FLAG tag; test: LCCA (SPR tag readout), L1:L2 DNA 1:3, normalized to 1:1; competing light chain m13
[8] = target: D3H44 light chain Q124R_T178R with N-terminal HA or FLAG tag; test: as above
[9] = target: D3H44 light chain Q124K_T178R with N-terminal HA or FLAG tag; test: as above
[10] = target: D3H44 light chain Q124R_Q160K_T178R with N-terminal HA or FLAG tag; test: as above
[11] = target: D3H44 light chain Q124R_T178R with N-terminal HA or FLAG tag; test: LCCA (SPR tag readout), L1:L2 DNA 1:9, normalized to 1:1; competing light chain m10
[12] = target: D3H44 light chain Q124R_T178R with N-terminal HA or FLAG tag; test: LCCA (SPR tag readout), L1:L2 DNA 1:3, normalized to 1:1; competing light chain m10
[13] = target: D3H44 light chain Q124R_T178R with N-terminal HA or FLAG tag; test: LCCA (SPR tag readout), L1:L2 DNA 1:9, normalized to 1:1; competing light chain m11
[14] = target: D3H44 light chain Q124E_T180E with N-terminal HA or FLAG tag; test: LCCA (SPR tag readout), L1:L2 DNA 1:3, normalized to 1:1; competing light chain m14
[15] = target: D3H44 light chain Q124E_T180E with N-terminal HA or FLAG tag; test: LCCA (SPR tag readout), L1:L2 DNA 1:3, normalized to 1:1; competing light chain m12
[16] = target: D3H44 light chain Q124E_T180E with N-terminal HA or FLAG tag; test: LCCA (SPR tag readout), L1:L2 DNA 1:3, normalized to 1:1; competing light chain m9
[17] = target: D3H44 light chain Q124E_T178E with N-terminal HA or FLAG tag; test: as above
[18] = target: D3H44 light chain Q124E_T178E_T180E with N-terminal HA or FLAG tag; test: as above
[19] = target: D3H44 light chain Q124E_T180E with N-terminal HA or FLAG tag; test: LCCA (SPR tag readout), L1:L2 DNA 1:3, normalized to 1:1; competing light chain m19
[20] = target: D3H44 light chain Q124E_T178E with N-terminal HA or FLAG tag; test: LCCA (SPR tag readout), L1:L2 DNA 1:9, normalized to 1:1; competing light chain m9
[21] = target: D3H44 light chain Q124E_T178E_T180E with N-terminal HA or FLAG tag; test: as above
[22] = target: tissue factor (TF) antigen (UniProt P13726); test: SPR, His-captured Fab, TF as analyte, 1:1 fit; batch C (+)
[23] = target: tissue factor (TF) antigen (UniProt P13726); test: SPR, His-captured Fab, TF as analyte; against wild-type D3H44 Fab; batch C (+)
[24] = target: tissue factor (TF) antigen (UniProt P13726); test: SPR (ProteOn XPR36), Fab captured on anti-penta-His surface, TF injected as analyte, 1:1 fit; batch C (marked +)
[25] = target: tissue factor (TF) antigen (UniProt P13726); test: SPR (ProteOn XPR36), Fab captured on anti-penta-His surface, TF injected as analyte, 1:1 fit; batch C (marked +); reference wild-type D3H44 Fab
[26] = target: D3H44 Fab heavy chain S186K, ABD2-His6 tagged; test: LCCA, SPR of light chain tags; L1:L2 DNA 1:3 normalized to 1:1; competing light chain m16
[27] = target: D3H44 Fab heavy chain L143E_K145T_Q179E, ABD2-His6 tagged; test: as above
[28] = target: D3H44 Fab heavy chain S186K, ABD2-His6 tagged; test: LCCA, SPR of light chain tags; L1:L2 DNA 1:9 normalized to 1:1; competing light chain m16
[29] = target: D3H44 Fab heavy chain L143E_K145T_Q179E, ABD2-His6 tagged; test: as above
[30] = target: D3H44 Fab heavy chain Q179R, ABD2-His6 tagged; test: LCCA, SPR of light chain tags; L1:L2 DNA 1:3 normalized to 1:1; competing light chain m16
[31] = target: D3H44 Fab heavy chain Q179R, ABD2-His6 tagged; test: LCCA, SPR of light chain tags; L1:L2 DNA 1:9 normalized to 1:1; competing light chain m16
[32] = target: tissue factor (TF) antigen (UniProt P13726); test: SPR; log change of median KD against wild-type D3H44 Fab; batch C (+)
[33] = target: tissue factor (TF) antigen (UniProt P13726); test: SPR, Fab captured by anti-penta-His, TF injected, 1:1 fit; batch C (+)

Substance: D3H44 Fab heavy chain L124E_K145M_Q179E
H1L1:H1L2 normalized median ratio [1]: 6 parts of 100
H1L1:H1L2 normalized median ratio [2]: 6 parts of 100

Substance: D3H44 Fab heavy chain L124R_D146N_Q179K
H2L2:H2L1 normalized median ratio [3]: 89 parts of 100
H2L2:H2L1 normalized median ratio [1]: 90 parts of 100

Substance: D3H44 Fab heavy chain L124R_S186R
H2L2:H2L1 normalized median ratio [4]: 95 parts of 100
H2L2:H2L1 normalized median ratio [5]: 92 parts of 100

Substance: D3H44 Fab heavy chain S186R with C-terminal ABD2-His6 tag
H2L2:H2L1 normalized median ratio [6]: 4%
H2L2:H2L1 normalized median ratio [7]: 4%
H2L2:H2L1 normalized median ratio [8]: 4%
H2L2:H2L1 normalized median ratio [9]: 3%
H2L2:H2L1 normalized median ratio [10]: 2%
H2L2:H2L1 normalized median ratio [11]: 18%
H2L2:H2L1 normalized median ratio [12]: 7%
H2L2:H2L1 normalized median ratio [13]: 18%
H2L2:H2L1 normalized median ratio [14]: 98%
H2L2:H2L1 normalized median ratio [15]: 97%
H2L2:H2L1 normalized median ratio [16]: 96%
H2L2:H2L1 normalized median ratio [17]: 96%
H2L2:H2L1 normalized median ratio [18]: 93%
H2L2:H2L1 normalized median ratio [19]: 96%
H2L2:H2L1 normalized median ratio [20]: 82%
H2L2:H2L1 normalized median ratio [21]: 82%

Substance: D3H44 Fab heterodimer H1L1 of LCCA Set # 9813 (H1 Q39E_K145T_H172R_Q179E; L1 Q38R_S131K)
Kd [22]: 0.18 nM
Change in median values of KD compared to wild type (-(log(KD design)-log(KD wt))) [23]: -0.05 log

Substance: D3H44 Fab heterodimer H1L1 of LCCA Set # 9848 and 9847 (H1 S186K; L1 Q124E_S176L_T180E)
Kd [22]: 0.15 nM
Change in median values of KD compared to wild type (-(log(KD design)-log(KD wt))) [23]: 0.03 log

Substance: D3H44 light chain Q124E_Q160E_T180E, HA or FLAG tagged
H2L2:H2L1 normalized median ratio [26]: 94%
H1L1:H1L2 normalized median ratio [27]: 9%
H2L2:H2L1 normalized median ratio [28]: 94%
H1L1:H1L2 normalized median ratio [29]: 22%

Substance: H1L1 Fab heterodimer of LCCA sets 9858, 9853, 9855, 9862, 9863 and 9860 (D3H44 Fab, H1 S186K, L1 Q124E_T180E)
Change in median values of KD of h1l1 Fab heterodimer compared to wild type (-(log(KD design)-log(KD wt))) [32]: 0.46 log units
Kd [33]: 0.06 nM

Substance: H1L1 Fab heterodimer of LCCA sets 9898, 9893, 9891 and 9896 (D3H44 Fab, H1 S186R, L1 Q124E_T180E)
Change in median values of KD of h1l1 Fab heterodimer compared to wild type (-(log(KD design)-log(KD wt))) [32]: 0.36 log units
Kd [33]: 0.07 nM

Results, then the substance that gave them:

Kd [22]: 0.18 nM
Change in median values of KD compared to wild type (-(log(KD design)-log(KD wt))) [23]: -0.06 log
Substance: D3H44 Fab heterodimer H1L1 of LCCA Set # 9885 and 9886 (H1 S186R; L1 Q124E_S176L_T180E)

Kd [24]: 0.2 nM
Change in median KD of h1l1 Fab heterodimer compared to wild type (-(log(KD design)-log(KD wt))) (log(KD) difference) [25]: -0.1
Substance: D3H44 H1L1 Fab heterodimer, H1 Q39E_L143E_K145T_Q179E, L1 Q38R_Q124R_Q160K_T178R

Kd [24]: 0.07 nM
Change in median KD of h1l1 Fab heterodimer compared to wild type (-(log(KD design)-log(KD wt))) (log(KD) difference) [25]: 0.38
Substance: D3H44 H1L1 Fab heterodimer, H1 Q39R_D146G_H172R_Q179K, L1 Q38E_Q124E_Q160E_T180E

Kd [24]: 0.24 nM
Change in median KD of h1l1 Fab heterodimer compared to wild type (-(log(KD design)-log(KD wt))) (log(KD) difference) [25]: -0.18
Substance: D3H44 H1L1 Fab heterodimer, H1 Q39R_H172R_Q179K, L1 Q38E_Q124E_Q160E_T180E

H2L2:H2L1 normalized median ratio [30]: 94%
H2L2:H2L1 normalized median ratio [26]: 95%
H1L1:H1L2 normalized median ratio [27]: 8%
H2L2:H2L1 normalized median ratio [31]: 90%
H2L2:H2L1 normalized median ratio [28]: 89%
H1L1:H1L2 normalized median ratio [29]: 8%
Substance: D3H44 light chain Q124E_T178E_T180E, HA or FLAG tagged

Change in median values of KD of h1l1 Fab heterodimer compared to wild type (-(log(KD design)-log(KD wt))) [32]: -0.01 log units
Kd [33]: 0.16 nM
Substance: H1L1 Fab heterodimer of LCCA sets 9812 and 9811 (D3H44 Fab, H1 Q179R, L1 Q124E_T178E_T180E)
